Results on 1 molecule are retold here after publication doi:10.1101/2022.06.02.494603 (bioRxiv, 2022).

The assay deals with optineurin, C-terminal myc-FLAG-tagged (UniProt Q96CV9 1-577). Kind of assay: co-IP.
optineurin, C-terminal myc-FLAG-tagged, sequence (Q96CV9 whole entry): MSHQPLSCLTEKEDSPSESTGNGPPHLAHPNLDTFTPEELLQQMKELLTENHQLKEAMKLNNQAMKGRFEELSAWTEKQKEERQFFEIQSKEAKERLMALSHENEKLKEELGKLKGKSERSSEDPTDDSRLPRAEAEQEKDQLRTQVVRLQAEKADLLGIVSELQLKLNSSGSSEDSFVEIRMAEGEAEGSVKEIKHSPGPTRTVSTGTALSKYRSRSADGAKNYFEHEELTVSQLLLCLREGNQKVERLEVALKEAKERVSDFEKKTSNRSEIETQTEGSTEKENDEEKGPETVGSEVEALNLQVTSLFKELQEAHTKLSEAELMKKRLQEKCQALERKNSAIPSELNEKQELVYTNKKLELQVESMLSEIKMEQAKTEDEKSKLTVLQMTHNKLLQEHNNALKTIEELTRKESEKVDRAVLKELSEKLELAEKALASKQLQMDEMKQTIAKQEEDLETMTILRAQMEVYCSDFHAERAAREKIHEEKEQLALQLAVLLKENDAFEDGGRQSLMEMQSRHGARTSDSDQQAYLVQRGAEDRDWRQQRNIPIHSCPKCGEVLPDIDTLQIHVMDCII

B1: TBK1 T4A, untagged (natural protein, human, UniProt Q9UHD2 1-729, looked up)
chain: MQSASNHLWLLSDILGQGATANVFRGRHKKTGDLFAIKVFNNISFLRPVDVQMREFEVLKKLNHKNIVKLFAIEEETTTRHKVLIMEFCPCGSLYTVLEEPSNAYGLPESEFLIVLRDVVGGMNHLRENGIVHRDIKPGNIMRVIGEDGQSVYKLTDFGAARELEDDEQFVSLYGTEEYLHPDMYERAVLRKDHQKKYGATVDLWSIGVTFYHAATGSLPFRPFEGPRRNKEVMYKIITGKPSGAISGVQKAENGPIDWSGDMPVSCSLSRGLQVLLTPVLANILEADQEKCWGFDQFFAETSDILHRMVIHVFSLQQMTAHKIYIHSYNTATIFHELVYKQTKIISSNQELIYEGRRLVLEPGRLAQHFPKTTEENPIFVVSREPLNTIGLIYEKISLPKVHPRYDLDGDASMAKAITGVVCYACRIASTLLLYQELMRKGIRWLIELIKDDYNETVHKKTEVVITLDFCIRNIEKTVKVYEKLMKINLEAAELGEISDIHTKLLRLSSSQGTIETSLQDIDSRLSPGGSLADAWAHQEGTHPKDRNVEKLQVLLNCMTEIYYQFKKDKAERRLAYNEEQIHKFDKQKLYYHATKAMTHFTDECVKKYEAFLNKSEEWIRKMLHLRKQLLSLTNQCFDIEEEVSKYQEYTNELQETLPQKMFTASSGIKHTMTPIYPSSNTLVEMTLGMKKLKEEMEGVVKELAENNHILERFGSLTMDGGLRNVDCL
With B1, the “TBK1 bound to OPTN relative to wild type” value is 1.93 relative to TBK1 WT.
